Measurements published in patent publication US20240279331A1 (University of California, published 2024).
Residue numbers refer to the chain shown, from its start.

T1: NCR3 on cell (on-cell binding in the affinity-maturation table) (human, UniProt O14931 19-201, limits assumed)
T1 construct: On cell
T1 sequence (looked up): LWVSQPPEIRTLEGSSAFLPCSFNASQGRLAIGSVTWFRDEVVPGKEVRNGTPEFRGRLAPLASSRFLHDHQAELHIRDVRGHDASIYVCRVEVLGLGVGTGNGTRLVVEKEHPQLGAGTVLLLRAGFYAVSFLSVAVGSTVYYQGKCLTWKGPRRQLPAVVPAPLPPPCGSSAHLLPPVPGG

T2: CD244 extracellular domain fused to a generic transmembrane domain, on tetracycline-inducible FlpIn cells (UniProt Q9BZW8 22-229)
T2 construct: extracellular domain; not shown: transmembrane domain of platelet-derived growth factor (so in the source) with a HA tag
T2 sequence (looked up): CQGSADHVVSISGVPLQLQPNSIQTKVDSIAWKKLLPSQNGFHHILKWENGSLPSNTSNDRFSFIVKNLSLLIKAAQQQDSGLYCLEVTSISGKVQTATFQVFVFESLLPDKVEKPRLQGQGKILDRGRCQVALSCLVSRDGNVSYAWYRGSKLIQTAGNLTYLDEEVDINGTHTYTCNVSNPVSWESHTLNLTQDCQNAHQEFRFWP

T3: TNFSF4 extracellular domain fused to a generic transmembrane domain, on tetracycline-inducible FlpIn cells (UniProt P23510 51-183)
T3 construct: extracellular domain; also called OX40L; not shown: transmembrane domain of platelet-derived growth factor (so in the source) with a HA tag
T3 sequence (looked up): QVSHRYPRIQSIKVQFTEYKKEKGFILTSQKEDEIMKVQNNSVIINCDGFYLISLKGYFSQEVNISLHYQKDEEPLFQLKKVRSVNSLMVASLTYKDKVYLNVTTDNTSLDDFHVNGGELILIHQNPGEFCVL

T4: NCR3 (antigen of the ELISA in the affinity-maturation table) (human, UniProt O14931 19-135, limits assumed)
T4 construct: also called Natural Cytotoxicity Triggering Receptor 3
T4 sequence (looked up): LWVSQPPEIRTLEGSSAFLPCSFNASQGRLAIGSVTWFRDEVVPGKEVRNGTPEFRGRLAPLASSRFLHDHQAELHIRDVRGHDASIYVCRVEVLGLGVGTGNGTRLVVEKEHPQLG

T5: NCR3 extracellular domain TEV-cleavable Fc-fusion, biotinylated (human, UniProt O14931 19-135, biotinylated (site not stated))
T5 construct: extracellular domain; Antigen of the phage selections and Fab-phage ELISAs; not shown: TEV cleavage site and Fc domain
T5 sequence (looked up): T4 sequence (looked up)

T6: NCR3 extracellular domain fused to a generic transmembrane domain, on tetracycline-inducible FlpIn cells (human, UniProt O14931 19-135)
T6 construct: extracellular domain; HEK293 FlpIn cells, expression on tetracycline addition; also called NCR3 over expression cell line; not shown: transmembrane domain of platelet-derived growth factor (so in the source) with a HA tag
T6 sequence (looked up): T4 sequence (looked up)

T7: NCR3 as expressed on NK cells (human, UniProt O14931 19-201)
T7 construct: whole, on cells; Primary human peripheral blood NK cells; NK92MI cells in the bispecific cytotoxicity assay; also called peripheral blood NK cells; NCR3+ NK92MI cells
T7 sequence (looked up): T1 sequence (looked up)

B1: NCR3.18 Fab (Fab)
heavy: EVQLVESGGGLVQPGGSLRLSCAASGFNVSSSSIHWVRQAPGKGLEWVASISSSSGSTSYADSVKGRFTISADTSKNTAYLQMNSLRAEDTAVYYCARRISSYYMSYYDSFYYAGMDYWGQGTLVTVSSASTKGPSVFPLAPSSKSTSGGTAALGCLVKDYFPEPVTVSWNSGALTSGVHTFPAVLQSSGLYSLSSVVTVPSSSLGTQTYICNVNHKPSNTKVDKKVEPKSCDKTHT
light: DIQMTQSPSSLSASVGDRVTITCRASQSVSSAVAWYQQKPGKAPKLLIYSASSLYSGVPSRFSGSRSGTDFTLTISSLQPEDFATYYCQQSSSSLITFGQGTKVEIKRTVAAPSVFIFPPSDSQLKSGTASVVCLLNNFYPREAKVQWKVDNALQSGNSQESVTEQDSKDSTYSLSSTLTLSKADYEKHKVYACEVTHQGLSSPVTKSFNRGEC
notes: also called parental NCR3.18 clone; anti-NCR3 Fab #78
B2: NCR3.12 Fab (Fab)
heavy: EVQLVESGGGLVQPGGSLRLSCAASGFNISSSSIHWVRQAPGKGLEWVAYISSSSGYTSYADSVKGRFTISADTSKNTAYLQMNSLRAEDTAVYYCARYSYFYGGYFYWTSWGAFDYWGQGTLVTVSSASTKGPSVFPLAPSSKSTSGGTAALGCLVKDYFPEPVTVSWNSGALTSGVHTFPAVLQSSGLYSLSSVVTVPSSSLGTQTYICNVNHKPSNTKVDKKVEPKSCDKTHT
light: B1 light with S93Y, S94W, L95P, I96F
notes: also called anti-NCR3 Fab #72
B3: NCR3.19 Fab (Fab)
heavy: EVQLVESGGGLVQPGGSLRLSCAASGFNVYSYSIHWVRQAPGKGLEWVASIYSYYGSTSYADSVKGRFTISADTSKNTAYLQMNSLRAEDTAVYYCARWYQYYYIGTAAMDYWGQGTLVTVSSASTKGPSVFPLAPSSKSTSGGTAALGCLVKDYFPEPVTVSWNSGALTSGVHTFPAVLQSSGLYSLSSVVTVPSSSLGTQTYICNVNHKPSNTKVDKKVEPKSCDKTHT
light: B1 light with S91Q, S92W, S93Y, S94P
notes: also called anti-NCR3 Fab #79
B4: CD16.03 Fab (Fab)
heavy: EVQLVESGGGLVQPGGSLRLSCAASGFNFSSYSIHWVRQAPGKGLEWVASIYSSSGSTSYADSVKGRFTISADTSKNTAYLQMNSLRAEDTAVYYCARWSYDQYYDQHGYYFYYWGFDYWGQGTLVTVSSASTKGPSVFPLAPSSKSTSGGTAALGCLVKDYFPEPVTVSWNSGALTSGVHTFPAVLQSSGLYSLSSVVTVPSSSLGTQTYICNVNHKPSNTKVDKKVEPKSCDKTHT
light: B1 light with S93A, S94E
notes: also called anti-CD16 Fab #3

Key:
[1] = target: T1, NCR3 on cell (on-cell binding in the …); assay: on-cell binding, Fab on NCR3
[2] = target: T8, TNFRSF9 extracellular domain fused to a generic transmembrane domain, on tetracycline-inducible FlpIn cells (UniProt Q07011 24-186); assay: flow cytometry, Fab on tetracycline-inducible cell lines over-expressing each ECD (FIG. S5)
T8 construct: extracellular domain; also called 4-1BB; not shown: transmembrane domain of platelet-derived growth factor (so in the source) with a HA tag
Protocol: (§1) To investigate the specificity of both activating and non-functional antibodies for their receptor targets, we developed a tetracycline-inducible cell line for each protein target—CD16, NCR1, NCR3, CD244, TNFRSF9, and TNFSF4. The ECDs of these proteins were fused to a generic transmembrane domain and were expressed upon tetracycline addition.
(§2) Titrations were performed on primary human NK cells or tetracycline induced overexpression cell lines as indicated. When tetracycline induced overexpression cell lines were used, cells were dosed with 10 μg/mL tetracycline for 2 days prior to staining. The starting concentration of each Fab or bispecific antibody was 1 μM, and serial 1:5 dilutions were performed. Antibodies were incubated with cells for 1 hr at 4° C., washed 2 times in 3% BSA in PBS pH 7.4, and stained for 30 min with an Alexafluor-647 conjugated goat anti-human IgG F(ab′)2 fragment (Jackson ImmunoResearch Laboratories) at a 1:50 dilution. After an additional 3 washes, cells were fixed and fluorescence was quantified using a CytoFLEX (Beckman Coulter). All flow cytometry data were analyzed using FlowJo software.

[3] = target: T9, CD16 extracellular domain fused to a generic transmembrane domain, on tetracycline-inducible FlpIn cells (human, UniProt P08637 17-208); assay: as above
T9 construct: extracellular domain; HEK293 FlpIn cells, expression on tetracycline addition; also called CD16 over expression cell line; CD16A; not shown: transmembrane domain of platelet-derived growth factor (so in the source) with a HA tag
T9 sequence (P08637 17-208): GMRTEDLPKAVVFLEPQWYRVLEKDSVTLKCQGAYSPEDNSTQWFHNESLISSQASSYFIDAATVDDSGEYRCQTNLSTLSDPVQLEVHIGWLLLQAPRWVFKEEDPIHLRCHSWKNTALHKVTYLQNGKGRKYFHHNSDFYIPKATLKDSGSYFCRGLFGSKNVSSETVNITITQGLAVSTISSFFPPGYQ
Protocol: as §1, §2

[4] = target: T2, CD244 extracellular domain fused to a …; assay: as above
Protocol: as §1, §2

[5] = target: T10, NCR1 extracellular domain fused to a generic transmembrane domain, on tetracycline-inducible FlpIn cells (human, UniProt O76036 22-258); assay: as above
T10 construct: extracellular domain; HEK293 FlpIn cells, expression on tetracycline addition; also called NCR1 over expression cell line; not shown: transmembrane domain of platelet-derived growth factor (so in the source) with a HA tag
T10 sequence (O76036 22-258): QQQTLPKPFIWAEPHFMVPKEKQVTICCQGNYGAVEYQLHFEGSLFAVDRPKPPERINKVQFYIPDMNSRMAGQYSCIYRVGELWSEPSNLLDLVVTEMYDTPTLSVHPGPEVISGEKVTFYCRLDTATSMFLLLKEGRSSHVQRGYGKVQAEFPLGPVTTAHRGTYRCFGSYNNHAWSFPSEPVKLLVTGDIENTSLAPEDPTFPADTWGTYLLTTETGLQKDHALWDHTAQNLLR
Protocol: as §1, §2

[6] = target: T3, TNFSF4 extracellular domain fused to a …; assay: as above
Protocol: as §1, §2

[7] = target: T4, NCR3 (antigen of the ELISA in the …); assay: ELISA, Fab on NCR3
[8] = target: T5, NCR3 extracellular domain TEV-cleavable …; assay: Fab-phage selection and Fab-phage ELISA on biotinylated ECD Fc-fusion (antigen column of Table S1)
Protocol: (§3) To generate antibodies against these antigens, we expressed the extracellular domains (ECDs) of these proteins as TEV-cleavable Fc-fusions and performed Fab-phage display selections to enrich for high affinity antibody binders (FIG. S1), as previously described [Hornsby, M. et al., Mol Cell Proteomics. 14(10), 2833-2847 (2015)]. After each selection, Fab-phage ELISAs were performed to determine the relative affinity and selectivity of these binders for their antigen targets (FIG. S2).
(§4) TEV-cleavable Fc-fusion proteins were expressed and biotinylated in Expi293F cells using the standard expression protocol. Media were harvested after 4 days of expression and protein was purified by protein A affinity chromatography. Phage selections were performed according to previously established protocols1 with the Fab-phage Library E2. Non-specific binders were depleted from the library by incubating the phage pool with Fc-domain immobilized on streptavidin beads. Fab phage were selected using biotinylated Fc-fusions that were captured on streptavidin-coated magnetic beads, and were released through TEV elution. Each selection consists of four rounds. With each round, decreasing amounts of Fc-fusions (1 μM, 100 nM, 10 nM, and […]) were used. ELISAs were performed for 96 individual Fab-phage clones from the third or fourth rounds of selection to evaluate for affinity and selectivity.
(§5) ELISAs were performed as previously described1. In brief, Maxisorp plates were coated with 10 μg/mL of Neutravidin overnight at 4° C. Biotinylated target antigen (20 nM) was captured on the Neutravidin coated plates for 30 min, and then exposed to a 1:5 dilution of phage supernatants for 30 min. Bound phage were detected via a horseradish-peroxidase-conjugated anti-phage monoclonal antibody (GE Lifesciences).

[9] = target: T6, NCR3 extracellular domain fused to a …; assay: flow cytometry, Fab on tetracycline-inducible cells over-expressing the ECD (FIG. S5)
Protocol: as §1, §2

[10] = target: T7, NCR3 as expressed on NK cells; assay: flow cytometry, Fab titration on peripheral blood NK cells (FIG. S6)
Protocol: (§6) To evaluate the affinity of the selected antibodies for NK cells, we titrated the nine Fab clones on peripheral blood NK cells.
as §2

[11] = target: T11, CD16 extracellular domain TEV-cleavable Fc-fusion, biotinylated (human, UniProt P08637 17-208, biotinylated (site not stated)); assay: Fab-phage selection and Fab-phage ELISA on biotinylated ECD Fc-fusion (antigen column of Table S1)
T11 construct: extracellular domain; Antigen of the phage selections and Fab-phage ELISAs; also called CD16A; not shown: TEV cleavage site and Fc domain
T11 sequence (P08637 17-208): as the sequence (P08637 17-208) above
Protocol: as §3, §4, §5

[12] = target: T9, CD16 extracellular domain fused to a …; assay: flow cytometry, Fab on tetracycline-inducible cells over-expressing the ECD (FIG. S5)
Protocol: as §1, §2

[13] = target: T12, CD16 as expressed on NK cells (human, UniProt P08637 17-254); assay: flow cytometry, Fab titration on peripheral blood NK cells (FIG. S6)
T12 construct: whole, on cells; Primary human peripheral blood NK cells; PBMCs in the bispecific cytotoxicity assay; also called peripheral blood NK cells; PBMCs
T12 sequence (P08637 17-254): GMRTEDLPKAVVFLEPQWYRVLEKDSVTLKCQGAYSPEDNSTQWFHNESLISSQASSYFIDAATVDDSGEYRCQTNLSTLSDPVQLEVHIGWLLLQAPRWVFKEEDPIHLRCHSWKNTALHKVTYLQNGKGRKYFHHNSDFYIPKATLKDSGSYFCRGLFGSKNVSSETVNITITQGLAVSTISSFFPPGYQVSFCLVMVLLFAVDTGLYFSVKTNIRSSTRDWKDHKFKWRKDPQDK
Protocol: as §6, §2

[14] = target: T6, NCR3 extracellular domain fused to a …; assay: flow cytometry, Fab on tetracycline-inducible cell lines over-expressing each ECD (FIG. S5)
Protocol: as §1, §2

Binder	EC50 [1] [nM]	binding result [2]	binding result [3]	binding result [4]	binding result [5]	binding result [6]	EC50 [7] [nM]	binding result [8]	binding result [9]	binding result [10]	binding result [11]	binding result [12]	binding result [13]	binding result [14]
B1	2.27	no binding	no binding	no binding	no binding	no binding	1.63	–	–	–	–	–	–	–
B2	–	no binding	no binding	no binding	no binding	no binding	–	binds	binds	binds	–	–	–	–
B3	–	no binding	no binding	no binding	no binding	no binding	–	binds	binds	binds	–	–	–	–
B4	–	no binding	–	no binding	no binding	no binding	–	–	–	–	binds	binds	binds	no binding
